As usually defined, the Kd is the free concentration of one partner at which half of the binding sites on the other are occupied at equilibrium, for simple one-to-one binding. In general, kon refers to the second-order rate constant of association. A lower kon goes with slower complex formation. In general, IC50 refers to the point on the concentration scale where inhibition reaches its midpoint. A lower IC50 goes with greater potency. As usually defined, the half-life is how long it takes for the measured level to halve. A lower half-life goes with rapid decline. As a reminder, the koff is a measure of how fast the partners let go of each other. Read a high koff as a short-lived complex.

The target in experiment [1] is human serum albumin (human) (UniProt P02768). Kind of experiment: competitive ELISA: soluble binding protein competes with plate-immobilised single maximum moiety for biotinylated human serum albumin, streptavidin-peroxidase readout. (An ELISA detects its analyte on a solid surface through an enzyme-linked reagent.)
Experiment [2] shares this target. Kind of experiment: annotation in the curve's label on the competitive ELISA plot; the sheet does not say how this Kd was obtained (text paragraph 46 speaks of a reported Kd ~1x10^-9 M).
For experiment [3] the target is unchanged. The experiment is described as follows: SPR (Biacore), HSA immobilised on CM5 chip, 40 nM, mean+/-SD, N=4.
Experiment [4] concerns the target IgG (biotinylated). The experiment is described as follows: competitive ELISA, soluble protein against immobilised two-moiety cassette for biotinylated IgG (Illustration 2.1).
For experiment [5], the target named is human IgG (from human serum; human immunoglobin G standard). The experiment is described as follows: extraction from diluted human serum with coated silica beads, gel/blot comparison with standards (Illustration 2.2).
Experiment [6] addresses IgG (biotinylated). The experiment is described as follows: competitive ELISA, slope around the 50% inhibition point (Illustration 2.1).
Experiment [7] has as its target IgG (biotinylated). The experiment is described as follows: competitive ELISA, ratio against one maximum domain (Illustration 2.1).
The target in experiment [8] is human serum albumin (human) (UniProt P02768). The experiment is described as follows: competitive ELISA, ratio against construct 1 (Illustration 1.2).
Experiment [9] has the same target. The experiment is described as follows: flow cytometry on beads, ratio against the single maximum moiety (Illustration 1.5).
Experiment [10] shares this target. Kind of experiment: competitive ELISA, soluble construct against immobilised binding protein for biotinylated HSA (Illustration 1.2).
Experiment [11] has the same target. Kind of experiment: SPR (Biacore), HSA immobilised on CM5 chip. (In general: Surface plasmon resonance follows binding to a sensor surface in real time, without labels.)
Experiment [12] shares this target. The experiment is described as follows: flow cytometry, binding protein immobilised on beads, fluorescein labeled albumin (Illustration 1.5). Background: In flow cytometry, cells or beads pass a laser one at a time.
The target is the same in experiment [13]. The experiment is described as follows: SPR (Biacore), HSA immobilised on CM5 chip, limited number of replicates.
Experiment [14] shares this target. The experiment is described as follows: competitive ELISA, slope around the 50% inhibition point (Illustration 1.2).

Regarding “native material analogous to that of Sjöbring et al. (1991), streptococcal protein G”, the IC50 (read off the curve) (pmoles per well) in [1] came to 10. Also, the Kd in experiment [2] amounted to 10 nM. Further, in experiment [3], the Kd is 0.7 nM and the kon was 123000 M⁻¹ s⁻¹.

B1: functional cassette with two maximum moieties (six minimum moieties) for IgG (designed binder)
chain: LGIDPFTALPKTDTYKLILNGKTLKGETTTEAVDAATAEKVFKQYANDNGVDGEWTYDDATKTFTVTEKPEVIDASELTPAVTTYKLVINGKTLKGETTTEAVDAATAEKVFKQYANDNGVDGEWTYDDATKTFTVTEKPEVIDASELTPAVTTYKLVINGKTLKGETTTKAVDAETAEKAFKQYANDNGVDGVWTYDDATKTFTVTEMVTESRALPKTDTYKLILNGKTLKGETTTEAVDAATAEKVFKQYANDNGVDGEWTYDDATKTFTVTEKPEVIDASELTPAVTTYKLVINGKTLKGETTTEAVDAATAEKVFKQYANDNGVDGEWTYDDATKTFTVTEKPEVIDASELTPAVTTYKLVINGKTLKGETTTKAVDAETAEKAFKQYANDNGVDGVWTYDDATKTFTVTEMVTEKGELKLCITGDALVALPEGES
The molecule B1 had an IC50 with IgG (biotinylated) [4] of 1 nM. In experiment [5], this molecule showed a percent of IgG extracted above 99%. The molecule further displayed a rate of change in the experiment with IgG (biotinylated) [6] of 50. In the experiment with IgG (biotinylated) [7], the R (ratio of 50% inhibition point, two maximum moieties / one maximum moiety) was 0.6 and the S (ratio of rate of change, two maximum moieties / one maximum moiety) worked out at 1.6.

B2: Construct "2" (functional cassette with two maximum moieties for human serum albumin) (designed binder, part only; not given: spacer and terminal segment, not shown: small tags and cut ends)
chain, part: AAALDQAKQAALKEFDRYGVSNYYKNLINKAKTVEGIMELQAQVVESAKKARISEATDGLSDFLKSQTSAEDTLKSIKLSEAKEMAIRELDAQGVSDFYKNKINNAKTVEGVVALKDLILNSLAAALDQAKQAALKEFDRYGVSNYYKNLINKAKTVEGIMELQAQVVESAKKARISEATDGLSDFLKSQTSAEDTLKSIKLSEAKEMAIRELDAQGVSDFYKNKINNAKTVEGVVALKDLILNSL
Turning to B2, in experiment [8], the R (ratio of 50% inhibition point, two maximum moieties / one maximum moiety) stood at 0.4 and the S (ratio of rate of change, two maximum moieties / one maximum moiety) came to 1.7. The F (ratio of apparent Kd, two maximum moieties / one maximum moiety) in [9] amounted to 0.67. In addition, the IC50 in [10] is 15 nM. The molecule also came in with a half-life in experiment [11] of 7410 days. Besides, in [12], the Kd turned out to be 160 nM. For the same molecule, in experiment [13], the Kd is below 0.01 nM, the koff is below 1e-05 s⁻¹ and the kon is 300000 M⁻¹ s⁻¹. This molecule returned a rate of change in experiment [14] of 8.5.

The values are drawn from patent publication US20130066046A1.
